Biological target: runt homology domain (RHD) of hRUNX1c (human)
Experiment: BLI; biotinylated RHD loaded on streptavidin biosensors; CBFβ, CBFβ-SMMHC or mutants in solution at varying concentrations (50-600 nM); Octet RED96e; 20 mM Tris-HCl pH 8.0, 100 mM KCl, 1 mM EDTA, 1 mM DTT, 0.02% Tween 20; global fit

Kd [nM]	Substance
64.7	core-binding factor β (CBFβ) (from UniProt Q13951-2 1-187) (natural protein)
13	CBFβ-SMMHC (from UniProt Q13951 1-165)

— article PMC12483565, “CBFβ-SMMHC–driven leukemogenesis requires enhanced RUNX1-DNA binding affinity in mice”
